In publication PMC2722910:

Tested on: CC(C)C[C@H](NC(=O)[C@H](CO)NC(=O)[C@H](C)NC(=O)[C@H](CCCNC(=N)N)NC(=O)[C@H](CCCNC(=N)N)NC(=O)[C@@H](N)CC(C)C)C(=O)NCC(=O)O
Experiment: purified protein
Settings: Mg2+, ATP

Substance: cAMP-dependent kinase (PKA) catalytic subunit (Homo sapiens)
- kcat: 8.5 ± 0.5 s⁻¹
